One molecule from US20260356955 (published 2026) can be followed below.

What is called EC50 is the concentration needed to bring the measured effect to its halfway point. A higher EC50 goes with lower potency in that assay. Usually Kd stands for the equilibrium constant for the complex coming apart. Low readings indicate a tighter complex, high ones a looser complex.

One assay has as its target T1, cynomolgus KLRB1 ECD (cynomolgus).
T1 chain: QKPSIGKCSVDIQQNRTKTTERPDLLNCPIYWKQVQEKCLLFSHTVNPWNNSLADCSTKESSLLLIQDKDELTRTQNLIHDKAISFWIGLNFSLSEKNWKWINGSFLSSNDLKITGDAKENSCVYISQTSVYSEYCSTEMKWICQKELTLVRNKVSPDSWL
Kind of assay: ELISA. In general terms: An ELISA detects its analyte on a solid surface through an enzyme-linked reagent.

Assay [1] deals with human KLRB1 on CHO-K1 (human). Kind of assay: FACS.
Assay [2] concerns the target human KLRB1 ECD (human). Kind of assay: ELISA.
For assay [3], the target named is T2, cynomolgus KLRB1 on CHO-K1 (cynomolgus).
T2 chain: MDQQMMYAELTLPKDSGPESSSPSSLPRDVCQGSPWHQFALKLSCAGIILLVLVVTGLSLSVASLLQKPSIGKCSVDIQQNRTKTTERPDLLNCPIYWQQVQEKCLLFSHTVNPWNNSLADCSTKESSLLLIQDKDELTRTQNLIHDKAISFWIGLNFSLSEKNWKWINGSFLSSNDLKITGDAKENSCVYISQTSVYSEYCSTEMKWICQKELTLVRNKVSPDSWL
Kind of assay: FACS. A general note: A flow cytometer gives signals particle by particle.

Assay [4] concerns the target human KLRB1 ECD (human). Kind of assay: ELISA. This is another data set of the same source.
The target of assay [5] is human KLRB1 ECD (human). Kind of assay: SPR. On the technique in general: Surface plasmon resonance follows binding to a sensor surface in real time, without labels.
For assay [6], the target named is human KLRB1 on CHO-K1 (human). Kind of assay: FACS. The source holds these as a separate data set.

Where two headings read alike, the source gives them in different places.

Chain of human KLRB1 ECD (human) (chain, as listed by the source): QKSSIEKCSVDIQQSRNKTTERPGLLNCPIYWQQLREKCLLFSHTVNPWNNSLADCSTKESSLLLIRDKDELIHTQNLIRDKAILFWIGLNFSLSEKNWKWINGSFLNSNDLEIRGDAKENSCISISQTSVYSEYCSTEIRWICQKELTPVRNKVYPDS
Chain of human KLRB1 on CHO-K1 (human) (chain, as listed by the source): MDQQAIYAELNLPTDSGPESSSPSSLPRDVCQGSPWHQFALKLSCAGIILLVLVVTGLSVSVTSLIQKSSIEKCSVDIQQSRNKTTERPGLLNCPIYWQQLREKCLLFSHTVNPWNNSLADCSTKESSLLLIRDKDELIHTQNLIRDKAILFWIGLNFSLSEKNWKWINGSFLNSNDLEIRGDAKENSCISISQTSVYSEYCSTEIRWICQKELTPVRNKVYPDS

B1: Hu50A8F2-04 (antibody, V domains shown)
VH: QVQLVQSGAEVKKPGASVKVSCKASGYTFIDYYINWVRQAPGQGLEWMGWIFPGSGHTKYNENFKGRVTMTRDTSTSTVYMELSSLRSEDTAVYYCARGDRSALGYFDYWGQGTTVTVSS
VL: DIQLTQSPSSLSASVGDRVTITCTASSSVSSTYLHWYQQKPGKSPKLLIYSTSNLASGVPSRFSGSGSGTDYTLTISSLQPEDAATYYCHQYHRSPLTFGQGTKLEIK
In the case of B1, the binding result (in the assay with cynomolgus KLRB1 ECD; in assay [3]) was “no binding” in each case. Further, the EC50 was determined as 5.45 nM with human KLRB1 on CHO-K1 [1], 0.0201 nM with human KLRB1 ECD [2], 0.033 nM with human KLRB1 ECD [4] and 6.81 nM with human KLRB1 on CHO-K1 [6]. In addition, the Kd in the assay with human KLRB1 ECD [5] turned out to be 0.693 nM.
